The record followed here is paper PMC8651296.

Assay [1] has as its target ctSTIM1 cysteine mutant at position 312 (C437S background) (human) (UniProt Q13586). The assay can be described thus: FRET or BRET; single-molecule FRET (TIRF), symmetric inter-subunit: one cysteine mutant labelled with Alexa Fluor 555 and 647 mixed 1:1; single ctSTIM1 dimers in liposomes tethered by biotin-neutravidin; 20/150 TBS pH 7.4, room temperature. Background: In BRET a luciferase serves as donor, and the signal depends on an acceptor being close.

Assay [2] deals with ctSTIM1 cysteine mutant at position 337 (C437S background) (human) (UniProt Q13586). The description is as above.

Consider “ctSTIM1 cysteine mutant at position 312 (C437S background) (from UniProt Q13586 233-685) (domain or fragment)”, for which the inter-subunit FRET efficiency in assay [1] was 0.9.

As for “ctSTIM1 cysteine mutant at position 337 (C437S background) (from UniProt Q13586 233-685) (domain or fragment)”, the inter-subunit FRET efficiency in assay [2] was 0.9.
